Assay results reported in paper PMC8276798, “High-Level Production of Lysine in the Yeast Saccharomyces cerevisiae by Rational Design of Homocitrate Synthase” (Applied and Environmental Microbiology, 2021).

Columns and labels:
[1] = target: T1, homocitrate synthase ScLys20 S385F variant (Saccharomyces cerevisiae, UniProt P48570, S385F); assay: DCPIP-coupled HCS activity assay with purified enzyme ([…] 2-OG, […] AcCoA); type: biochemical
T1 construct: gene LYS20; N-terminal His-tagged recombinant ScLys20
T1 sequence (P48570 1-428 S385F): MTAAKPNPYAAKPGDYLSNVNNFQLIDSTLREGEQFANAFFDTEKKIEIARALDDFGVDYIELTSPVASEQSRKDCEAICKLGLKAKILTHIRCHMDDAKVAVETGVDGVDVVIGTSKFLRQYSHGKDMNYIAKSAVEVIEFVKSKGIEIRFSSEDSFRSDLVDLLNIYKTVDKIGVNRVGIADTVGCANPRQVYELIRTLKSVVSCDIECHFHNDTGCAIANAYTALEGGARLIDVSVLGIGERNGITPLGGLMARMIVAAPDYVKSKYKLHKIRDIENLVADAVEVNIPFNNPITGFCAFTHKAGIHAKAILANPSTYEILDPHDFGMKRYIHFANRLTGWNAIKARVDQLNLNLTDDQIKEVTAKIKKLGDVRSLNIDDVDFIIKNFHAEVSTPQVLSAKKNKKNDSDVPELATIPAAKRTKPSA

[2] = target: T2, homocitrate synthase ScLys20 S385E variant (Saccharomyces cerevisiae, UniProt P48570, S385E); assay: as above; type: biochemical
T2 construct: gene LYS20; N-terminal His-tagged recombinant ScLys20
T2 sequence (P48570 1-428 S385E): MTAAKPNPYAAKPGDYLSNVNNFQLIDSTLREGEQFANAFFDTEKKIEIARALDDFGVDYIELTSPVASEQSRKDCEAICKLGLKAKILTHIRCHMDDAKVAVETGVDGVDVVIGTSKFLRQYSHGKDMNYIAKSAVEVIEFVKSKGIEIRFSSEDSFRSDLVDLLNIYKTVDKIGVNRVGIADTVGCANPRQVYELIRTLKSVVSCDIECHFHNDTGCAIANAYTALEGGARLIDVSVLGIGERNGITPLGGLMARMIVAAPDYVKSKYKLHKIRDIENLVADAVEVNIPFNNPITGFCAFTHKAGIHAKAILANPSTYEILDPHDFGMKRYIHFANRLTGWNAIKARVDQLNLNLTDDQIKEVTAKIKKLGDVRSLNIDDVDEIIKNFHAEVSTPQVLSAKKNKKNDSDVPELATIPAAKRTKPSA

[3] = target: T3, homocitrate synthase ScLys20 (wild type) (Saccharomyces cerevisiae, UniProt P48570); assay: as above; type: biochemical
T3 construct: gene LYS20; N-terminal His-tagged recombinant ScLys20
T3 sequence (P48570 1-428): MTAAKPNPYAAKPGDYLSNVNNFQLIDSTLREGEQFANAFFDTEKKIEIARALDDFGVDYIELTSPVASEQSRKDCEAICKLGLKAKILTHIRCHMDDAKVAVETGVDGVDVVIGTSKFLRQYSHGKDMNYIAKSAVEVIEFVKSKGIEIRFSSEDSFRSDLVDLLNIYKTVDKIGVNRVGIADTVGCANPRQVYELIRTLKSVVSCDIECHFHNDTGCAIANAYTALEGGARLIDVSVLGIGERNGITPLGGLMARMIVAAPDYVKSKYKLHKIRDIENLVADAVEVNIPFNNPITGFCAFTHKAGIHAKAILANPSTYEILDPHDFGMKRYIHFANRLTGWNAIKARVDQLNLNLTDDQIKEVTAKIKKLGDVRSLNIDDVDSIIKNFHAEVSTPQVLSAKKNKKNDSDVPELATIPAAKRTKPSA

[4] = substrate: CC(=O)SCCNC(=O)CCNC(=O)[C@H](O)C(C)(C)COP(=O)(O)OP(=O)(O)OC[C@H]1O[C@@H](n2cnc3c(N)ncnc32)[C@H](O)[C@@H]1OP(=O)(O)O; assay: steady-state kinetics of purified enzyme, DCPIP assay (apparent Km); type: biochemical, Saccharomyces cerevisiae
[5] = substrate: O=C(O)CCC(=O)C(=O)O; assay: purified protein; settings: active center
[6] = Arg31 interacts with 2-OG (homology model)

Molecule: NCCCC[C@H](N)C(=O)O [lysine]
- IC50 [1]: 2000 ± 680 µM
- IC50 [2]: 3200 ± 610 µM
- IC50 [3]: 1000 ± 140 µM

B1: homocitrate synthase ScLys20 (wild type) (Saccharomyces cerevisiae S288C) (protein)
chain: MTAAKPNPYAAKPGDYLSNVNNFQLIDSTLREGEQFANAFFDTEKKIEIARALDDFGVDYIELTSPVASEQSRKDCEAICKLGLKAKILTHIRCHMDDAKVAVETGVDGVDVVIGTSKFLRQYSHGKDMNYIAKSAVEVIEFVKSKGIEIRFSSEDSFRSDLVDLLNIYKTVDKIGVNRVGIADTVGCANPRQVYELIRTLKSVVSCDIECHFHNDTGCAIANAYTALEGGARLIDVSVLGIGERNGITPLGGLMARMIVAAPDYVKSKYKLHKIRDIENLVADAVEVNIPFNNPITGFCAFTHKAGIHAKAILANPSTYEILDPHDFGMKRYIHFANRLTGWNAIKARVDQLNLNLTDDQIKEVTAKIKKLGDVRSLNIDDVDSIIKNFHAEVSTPQVLSAKKNKKNDSDVPELATIPAAKRTKPSA
notes: N-terminal His-tagged recombinant ScLys20
- Km [4]: 24.2 ± 4.21 µM
- kcat [4]: 0.269 ± 0.014 s⁻¹
- kcat/Km [4]: 11100 M⁻¹ s⁻¹
- Km [5, 6]: 4600 ± 1260 µM
- kcat [5, 6]: 0.287 s⁻¹
- kcat/Km [5, 6]: 62.5 M⁻¹ s⁻¹

B2: homocitrate synthase ScLys20 S385L variant (Saccharomyces cerevisiae S288C; S385L) (protein)
chain: MTAAKPNPYAAKPGDYLSNVNNFQLIDSTLREGEQFANAFFDTEKKIEIARALDDFGVDYIELTSPVASEQSRKDCEAICKLGLKAKILTHIRCHMDDAKVAVETGVDGVDVVIGTSKFLRQYSHGKDMNYIAKSAVEVIEFVKSKGIEIRFSSEDSFRSDLVDLLNIYKTVDKIGVNRVGIADTVGCANPRQVYELIRTLKSVVSCDIECHFHNDTGCAIANAYTALEGGARLIDVSVLGIGERNGITPLGGLMARMIVAAPDYVKSKYKLHKIRDIENLVADAVEVNIPFNNPITGFCAFTHKAGIHAKAILANPSTYEILDPHDFGMKRYIHFANRLTGWNAIKARVDQLNLNLTDDQIKEVTAKIKKLGDVRSLNIDDVDLIIKNFHAEVSTPQVLSAKKNKKNDSDVPELATIPAAKRTKPSA
- Km [5]: 9500 ± 1990 µM
- kcat [5]: 0.436 s⁻¹
- kcat/Km [5]: 46 M⁻¹ s⁻¹

B3: homocitrate synthase ScLys20 S385F variant (Saccharomyces cerevisiae S288C; S385F) (protein)
chain: MTAAKPNPYAAKPGDYLSNVNNFQLIDSTLREGEQFANAFFDTEKKIEIARALDDFGVDYIELTSPVASEQSRKDCEAICKLGLKAKILTHIRCHMDDAKVAVETGVDGVDVVIGTSKFLRQYSHGKDMNYIAKSAVEVIEFVKSKGIEIRFSSEDSFRSDLVDLLNIYKTVDKIGVNRVGIADTVGCANPRQVYELIRTLKSVVSCDIECHFHNDTGCAIANAYTALEGGARLIDVSVLGIGERNGITPLGGLMARMIVAAPDYVKSKYKLHKIRDIENLVADAVEVNIPFNNPITGFCAFTHKAGIHAKAILANPSTYEILDPHDFGMKRYIHFANRLTGWNAIKARVDQLNLNLTDDQIKEVTAKIKKLGDVRSLNIDDVDFIIKNFHAEVSTPQVLSAKKNKKNDSDVPELATIPAAKRTKPSA
notes: as for B1
- Km [4]: 22.8 ± 4.88 µM
- kcat [4]: 0.373 ± 0.023 s⁻¹
- kcat/Km [4]: 16400 M⁻¹ s⁻¹
- Km [5]: 1990 ± 450 µM
- kcat [5]: 0.483 s⁻¹
- kcat/Km [5]: 243 M⁻¹ s⁻¹

B4: homocitrate synthase ScLys20 S385E variant (Saccharomyces cerevisiae S288C; S385E) (protein)
chain: MTAAKPNPYAAKPGDYLSNVNNFQLIDSTLREGEQFANAFFDTEKKIEIARALDDFGVDYIELTSPVASEQSRKDCEAICKLGLKAKILTHIRCHMDDAKVAVETGVDGVDVVIGTSKFLRQYSHGKDMNYIAKSAVEVIEFVKSKGIEIRFSSEDSFRSDLVDLLNIYKTVDKIGVNRVGIADTVGCANPRQVYELIRTLKSVVSCDIECHFHNDTGCAIANAYTALEGGARLIDVSVLGIGERNGITPLGGLMARMIVAAPDYVKSKYKLHKIRDIENLVADAVEVNIPFNNPITGFCAFTHKAGIHAKAILANPSTYEILDPHDFGMKRYIHFANRLTGWNAIKARVDQLNLNLTDDQIKEVTAKIKKLGDVRSLNIDDVDEIIKNFHAEVSTPQVLSAKKNKKNDSDVPELATIPAAKRTKPSA
notes: as for B1
- Km [4]: 16.1 ± 1.62 µM
- kcat [4]: 0.241 ± 0.0065 s⁻¹
- kcat/Km [4]: 14900 M⁻¹ s⁻¹
- Km [5]: 3110 ± 530 µM
- kcat [5]: 0.468 s⁻¹
- kcat/Km [5]: 150 M⁻¹ s⁻¹
